Measurements: patent US20160159862A1 (PROTAGONIST THERAPEUTICS, published 2016)
One block for each binder: values may come before it. Numbered stars: 1 amine (or outer) side, 2 acyl side, 3 side chain; on linkers, the order of the positions; unused ones are H or OH. Bridge positions count the residues as written; N and C are the ends. Square brackets hold non-standard residues; d marks the D form. Ends that are not written are not given here. Phe(4-OMe) = COc1ccc(C[C@H](N[*:1])C(=O)[*:2])cc1; Phe(4-COOH) = N[C@@H](Cc1ccc(C(=O)O)cc1)C(=O)O; Phe(4-tBu) = CC(C)(C)c1ccc(C[C@H](N)C(=O)O)cc1; Phe(2-CONH2) = NC(=O)c1ccccc1C[C@H](N)C(=O)O; Bip = N[C@@H](Cc1ccc(-c2ccccc2)cc1)C(=O)O; Phe(4-F) = N[C@@H](Cc1ccc(F)cc1)C(=O)O; 1Nal = N[C@@H](Cc1cccc2ccccc12)C(=O)O; 2Nal = N[C@@H](Cc1ccc2ccccc2c1)C(=O)O; Diglycolyl = O=C(COCC(=O)[*:2])[*:1]; NMeR = CN[C@@H](CCCNC(=N)N)C(=O)O; Tic = O=C(O)[C@@H]1Cc2ccccc2CN1; Cit = NC(=O)NCCC[C@H](N)C(=O)O; Pen = CC(C)(S)[C@H](N)C(=O)O; Dab = NCC[C@H](N)C(=O)O

Target: α4β7 integrin on human cells (human, UniProt P13612 34-1032; P26010 20-798)
Assay: cell-based or functional assay

B1: SEQ ID NO 66 (peptide)
peptide: Ac-[Pen][NMeR]SDTL[Pen]W[dE][dK]
modifications: disulfide 1-7 (inferred); not fully specified (residue 10); printed as Ac-Pen-(N-Me-R)-S-D-T-L-Pen-W-e-k-Ac
α4β7 cell (Hu) IC50: > 10000 nM

B2: SEQ ID NO 5 (peptide)
peptide: Ac-[dK]C[NMeR]SDTLCW[dK]-NH2
modifications: disulfide 2-8 (inferred); not fully specified; printed as DIG-(Ac-k-C-(N-Me-R)-S-D-T-L-C-W-k-NH2)2-DIG
α4β7 cell (Hu) IC50: > 50 nM

Binder: Ac-[Pen][NMeR]SDTL[Pen]W[dE][dK]-NH2 (disulfide 1-7 (inferred); also: homodimer linked by IDA) [SEQ ID NO 70]
α4β7 cell (Hu) IC50: > 25 nM

Binder: Ac-[Pen][NMeR]SDTL[Pen]W[dE][dK]-NH2 (disulfide 1-7 (inferred); also: homodimer linked by IDA, IDA-Biotine) [SEQ ID NO 71]
α4β7 cell (Hu) IC50: > 25 nM

B3: SEQ ID NO 6 (peptide)
peptide: Diglycolyl-C[NMeR]SDTLCW-NH2
modifications: disulfide 1-7 (inferred); not fully specified; printed as DIG-NH2-C-(N-Me-R)-S-D-T-L-C-W-NH2
α4β7 cell (Hu) IC50: > 50 nM

Binder: Ac-[Pen][NMeR]SDTL[Pen]W[dE][dK]-NH2 (disulfide 1-7 (inferred); also: homodimer linked by IDA, IDA-PEG4-Biotine) [SEQ ID NO 72]
α4β7 cell (Hu) IC50: > 25 nM

Binder: Ac-[Pen][NMeR]SDTL[Pen][2Nal]E-NH2 (disulfide 1-7 (inferred)) [SEQ ID NO 75]
α4β7 cell (Hu) IC50: > 50 nM

Binder: XRSDTLXWK ((Ac-Pen-(N-Me-R)-S-D-T-L-Pen-W-k-OH)2-DIG; disulfide) [SEQ ID NO 76]
α4β7 cell (Hu) IC50: > 10 nM

Binder: XRSDTLXWK ((Ac-Pen-(N-Me-R)-S-D-T-L-Pen-W-(N-Me-K)-NH2)2-DIG; disulfide) [SEQ ID NO 77]
α4β7 cell (Hu) IC50: > 100 nM

Binder: Ac-[Pen][NMeR]SDTL[Pen][Tic][dE][dK]-NH2 (disulfide 1-7 (inferred); also: homodimer linked by DIG) [SEQ ID NO 80]
α4β7 cell (Hu) IC50: > 50 nM

Binder: Ac-[Pen][NMeR]SDTL[Pen]WQ[dK]-NH2 (disulfide 1-7 (inferred); also: homodimer linked by DIG) [SEQ ID NO 82]
α4β7 cell (Hu) IC50: > 50 nM

B4: SEQ ID NO 7 (peptide)
peptide: [Pen][NMeR]SDTL[Pen][dF]-NH2
modifications: disulfide 1-7 (inferred); not fully specified (N-terminus); printed as DIG-NH2-Pen-(N-Me-R)-S-D-T-L-Pen-f-NH2, disulfide; also: DIG-NH2 at N-terminus, probably DIG-linked dimer
α4β7 cell (Hu) IC50: > 1000 nM

Binder: Ac-[Pen][NMeR]SDTL[Pen]WN[dK]-NH2 (disulfide 1-7 (inferred); also: homodimer linked by DIG) [SEQ ID NO 83]
α4β7 cell (Hu) IC50: > 50 nM

Binder: Ac-[Pen][NMeR]SDTL[Pen]W[Cit][dK]-NH2 (disulfide 1-7 (inferred); also: homodimer linked by DIG) [SEQ ID NO 84]
α4β7 cell (Hu) IC50: > 10 nM

Binder: Ac-[Pen][NMeR]SDTL[Pen]WF[dK]-NH2 (disulfide 1-7 (inferred); also: homodimer linked by DIG) [SEQ ID NO 85]
α4β7 cell (Hu) IC50: ≤ 10 nM

Binder: Ac-[Pen][NMeR]SDTL[Pen]WD[dK]-NH2 (disulfide 1-7 (inferred); also: homodimer linked by DIG) [SEQ ID NO 87]
α4β7 cell (Hu) IC50: > 25 nM

Binder: Ac-[Pen][NMeR]SDTL[Pen]W[dF][dK]-NH2 (disulfide 1-7 (inferred); also: homodimer linked by DIG) [SEQ ID NO 91]
α4β7 cell (Hu) IC50: > 100 nM

Binder: Ac-[Pen][NMeR]SDTL[Pen]W[dY][dK]-NH2 (disulfide 1-7 (inferred); also: homodimer linked by DIG) [SEQ ID NO 92]
α4β7 cell (Hu) IC50: > 50 nM

Binder: Ac-[Pen][NMeR]SDTLC[Tic][dE][dK]-NH2 (disulfide 1-7 (inferred); also: homodimer linked by DIG) [SEQ ID NO 93]
α4β7 cell (Hu) IC50: > 500 nM

Binder: Ac-[Pen][NMeR]SDTL[Pen]WP[dK]-NH2 (disulfide 1-7 (inferred); also: homodimer linked by DIG) [SEQ ID NO 94]
α4β7 cell (Hu) IC50: > 100 nM

Next, values leading:

α4β7 cell (Hu) IC50: > 100 nM
Binder: Ac-[Pen][NMeR]SDTL[Pen]WPK-NH2 (disulfide 1-7 (inferred); also: homodimer linked by DIG) [SEQ ID NO 95]

α4β7 cell (Hu) IC50: > 50 nM
Binder: Ac-[Pen][NMeR]SDTL[Pen]W[dP]K-NH2 (disulfide 1-7 (inferred); also: homodimer linked by DIG) [SEQ ID NO 96]

α4β7 cell (Hu) IC50: ≤ 10 nM
Binder: Ac-[Pen][NMeR]SDTL[Pen]WE[Dab]-NH2 (disulfide 1-7 (inferred); also: homodimer linked by DIG) [SEQ ID NO 97]

α4β7 cell (Hu) IC50: > 50 nM
Binder: Ac-[Pen][NMeR]SDTL[Pen][Phe(2-CONH2)][dE][dK]-NH2 (disulfide 1-7 (inferred); also: homodimer linked by DIG) [SEQ ID NO 98]

α4β7 cell (Hu) IC50: > 100 nM
Binder: Ac-[Pen][NMeR]SDTL[Pen][Phe(3-carbamoyl)][dE][dK]-NH2 (disulfide 1-7 (inferred); also: homodimer linked by DIG) [SEQ ID NO 99]

α4β7 cell (Hu) IC50: ≤ 10 nM
Binder: Ac-[Pen][NMeR]SDTL[Pen][Phe(4-COOH)][dE][dK]-NH2 (disulfide 1-7 (inferred); also: dimer via DIG) [SEQ ID NO 100]

α4β7 cell (Hu) IC50: > 50 nM
Binder: Ac-[Pen][NMeR]SDTL[Pen][Phe(2,4-Cl)][dE][dK]-NH2 (disulfide 1-7 (inferred); also: dimer via DIG) [SEQ ID NO 101]

α4β7 cell (Hu) IC50: > 100 nM
Binder: Ac-[Pen][NMeR]SDTL[Pen][Phe(3,4-Cl)][dE][dK]-NH2 (disulfide 1-7 (inferred); also: dimer via DIG) [SEQ ID NO 102]

α4β7 cell (Hu) IC50: > 25 nM
Binder: Ac-[Pen][NMeR]SDTL[Pen][Phe(4-OMe)][dE][dK]-NH2 (disulfide 1-7 (inferred); also: dimer via DIG) [SEQ ID NO 103]

α4β7 cell (Hu) IC50: > 100 nM
Binder: Ac-[Pen][NMeR]SDTL[Pen]W[dH][dK]-NH2 (disulfide 1-7 (inferred); also: dimer via DIG) [SEQ ID NO 104]

α4β7 cell (Hu) IC50: > 50 nM
Binder: Ac-[Pen][NMeR]SDTL[Pen]W[Phe(4-COOH)][dK]-NH2 (disulfide 1-7 (inferred); also: dimer via DIG) [SEQ ID NO 105]

α4β7 cell (Hu) IC50: ≤ 10 nM
Binder: Ac-[Pen][NMeR]SDTL[Pen][Phe(4-tBu)][dE][dK]-NH2 (disulfide 1-7 (inferred); also: dimer via DIG) [SEQ ID NO 106]

α4β7 cell (Hu) IC50: > 25 nM
Binder: Ac-[Pen][NMeR]SDTL[Pen][Phe(4-F)][dE][dK]-NH2 (disulfide 1-7 (inferred); also: dimer via DIG) [SEQ ID NO 107]

α4β7 cell (Hu) IC50: > 10 nM
Binder: Ac-[Pen][NMeR]SDTL[Pen][Bip][dE][dK]-NH2 (disulfide 1-7 (inferred); also: dimer via DIG) [SEQ ID NO 108]

α4β7 cell (Hu) IC50: > 100 nM
Binder: Ac-[Pen][NMeR]SDTL[Pen]W[Tic][dK]-NH2 (disulfide 1-7 (inferred); also: dimer via DIG) [SEQ ID NO 109]

α4β7 cell (Hu) IC50: > 10 nM
Binder: Ac-[Pen][NMeR]SDTL[Pen]W[dW][dK]-NH2 (disulfide 1-7 (inferred); also: dimer via DIG) [SEQ ID NO 110]

α4β7 cell (Hu) IC50: > 100 nM
Binder: Ac-[Pen][NMeR]SDTL[Pen][1Nal][dF][dK]-NH2 (disulfide 1-7 (inferred); also: dimer via DIG) [SEQ ID NO 111]

α4β7 cell (Hu) IC50: > 50 nM
Binder: Ac-[Pen][NMeR]SDTL[Pen][1Nal][dH][dK]-NH2 (disulfide 1-7 (inferred); also: homodimer via DIG) [SEQ ID NO 112]

α4β7 cell (Hu) IC50: > 500 nM
Binder: Ac-[Pen][NMeR]SDTL[Pen][1Nal][dL][dK]-NH2 (disulfide 1-7 (inferred); also: homodimer via DIG) [SEQ ID NO 113]
